Data reported in article PMC3102665, “A Sir2-Like Protein Participates in Mycobacterial NHEJ” (PLoS ONE, 2011).

Key:
His-MsmLigD protein = molecular target: T1, His-MsmLigD protein (M. smegmatis, UniProt A0R3R7 1-762); assay: pull-down; GST fusion held on glutathione-Sepharose 4B beads, incubated with purified His-tagged protein at 4°C for 8 h in 50 mM Tris-HCl pH 7.5, 200 mM NaCl, 10% glycerol; washes with 0.1% Nonidet P-40; Western blot with anti-His-tag antibody; settings: both partners purified
T1 construct: Multifunctional DNA ligase LigD of Mycobacterium smegmatis; The vector pET28a with a BamHI insert would put the His tag at the N-terminus; source: E. coli BL21 (DE3), purified (Ni-NTA)
T1 sequence (looked up): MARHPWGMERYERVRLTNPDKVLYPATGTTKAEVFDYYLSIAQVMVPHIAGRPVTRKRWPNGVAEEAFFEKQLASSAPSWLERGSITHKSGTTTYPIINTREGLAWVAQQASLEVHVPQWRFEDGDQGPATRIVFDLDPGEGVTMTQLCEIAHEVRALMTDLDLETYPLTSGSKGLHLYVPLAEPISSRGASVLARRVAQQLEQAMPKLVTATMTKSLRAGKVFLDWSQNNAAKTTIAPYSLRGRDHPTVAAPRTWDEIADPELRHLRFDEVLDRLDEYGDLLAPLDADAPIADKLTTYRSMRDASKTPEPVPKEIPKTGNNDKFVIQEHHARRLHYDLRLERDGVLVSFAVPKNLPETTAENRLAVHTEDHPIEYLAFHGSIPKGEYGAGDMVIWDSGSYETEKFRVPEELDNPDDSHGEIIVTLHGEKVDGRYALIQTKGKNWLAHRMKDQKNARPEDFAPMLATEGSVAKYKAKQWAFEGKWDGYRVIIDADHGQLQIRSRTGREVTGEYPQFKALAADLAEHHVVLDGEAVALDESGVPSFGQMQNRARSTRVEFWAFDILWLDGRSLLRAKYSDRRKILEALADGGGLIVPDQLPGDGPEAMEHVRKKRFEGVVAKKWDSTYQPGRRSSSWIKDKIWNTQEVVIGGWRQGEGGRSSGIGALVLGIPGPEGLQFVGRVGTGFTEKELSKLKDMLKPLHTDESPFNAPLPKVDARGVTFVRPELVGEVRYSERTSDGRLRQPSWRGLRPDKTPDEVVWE

His-MtuLigD protein = molecular target: T2, His-MtuLigD protein (M. tuberculosis, UniProt P9WNV3 1-759); assay: pull-down; settings: both partners purified
T2 construct: The vector pET28a with a BamHI insert would put the His tag at the N-terminus
T2 sequence (P9WNV3 whole entry): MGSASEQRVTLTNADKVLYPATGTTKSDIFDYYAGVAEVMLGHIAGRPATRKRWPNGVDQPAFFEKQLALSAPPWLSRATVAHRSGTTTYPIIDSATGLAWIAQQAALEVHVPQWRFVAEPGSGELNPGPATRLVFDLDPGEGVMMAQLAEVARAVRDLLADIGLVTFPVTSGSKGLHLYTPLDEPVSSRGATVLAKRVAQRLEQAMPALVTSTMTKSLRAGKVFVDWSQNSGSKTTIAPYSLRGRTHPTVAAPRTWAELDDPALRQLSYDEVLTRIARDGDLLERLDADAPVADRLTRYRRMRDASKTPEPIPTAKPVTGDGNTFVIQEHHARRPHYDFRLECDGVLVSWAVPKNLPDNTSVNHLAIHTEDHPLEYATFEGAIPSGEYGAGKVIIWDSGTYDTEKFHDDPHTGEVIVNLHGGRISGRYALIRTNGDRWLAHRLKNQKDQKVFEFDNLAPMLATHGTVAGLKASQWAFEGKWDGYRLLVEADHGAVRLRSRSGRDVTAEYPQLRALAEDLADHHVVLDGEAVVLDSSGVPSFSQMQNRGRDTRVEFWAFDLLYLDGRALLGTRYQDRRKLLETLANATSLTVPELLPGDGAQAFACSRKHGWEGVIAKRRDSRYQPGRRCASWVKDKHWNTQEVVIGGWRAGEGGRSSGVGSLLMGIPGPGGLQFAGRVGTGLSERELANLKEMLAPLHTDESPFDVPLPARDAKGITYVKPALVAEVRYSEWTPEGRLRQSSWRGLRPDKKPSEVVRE

B1: GST-MsmSir2 fusion protein (enzyme, M. smegmatis, UniProt A0R2N3 1-240, looked up)
chain: MQVTVLSGAGISAESGVPTFRDAETGLWAQVDPYEISSTDGWQRNPEKVWAWYLWRHYMMARVAPNEAHRTVAAWEDHLDVRVVTQNIDDLHERAGSTNVYHLHGSLFEFRCDACGSAFEGNLPEMPEPVETIDPPVCPCSGLIRPSVVWFGEPLPDAAWNRSVLAVSSADVVIVVGTSSIVYPAAGLPEAALAAGKPVIEVNPERTPLSDSATVSLRETASEALPTLLQRLPELLNRSA
notes: Sir2 (NAD-dependent deacetylase MSMEG_5175) of Mycobacterium smegmatis; the vector pGEX-6P-1 would put GST at the N-terminus; also called MsmSir2-GST; source: E. coli BL21 (DE3), purified (glutathione-Sepharose 4B)
binding result (His-MsmLigD protein): binds

B2: GST-MtuSir2 fusion protein (enzyme)
chain: MRVAVLSGAGISAESGVPTFRDDKNGLWARFDPYELSSTQGWLRNPERVWGWYLWRHYLVANVEPNDGHRAIAAWQDHAEVSVITQNVDDLHERAGSGAVHHLHGSLFEFRCARCGVPYTDALPEMPEPAIEVEPPVCDCGGLIRPDIVWFGEPLPEEPWRSAVEATGSADVMVVVGTSAIVYPAAGLPDLALARGTAVIEVNPEPTPLSGSATISIRESASQALPGLLERLPALLK
notes: the vector pGEX-6P-1 would put GST at the N-terminus; also called MtuSir2-GST
binding result (His-MtuLigD protein): binds
